US20250313612A1 (Adimab, published 2025)

Key:
[1] = biological target: RSV F protein of recombinant mKate-RSV, subtype B (18537) (Respiratory syncytial virus subtype B …, UniProt P13843 26-574); test: cell-based or functional assay
[2] = biological target: RSV F protein of recombinant mKate-RSV, subtype A (strain A2) (Respiratory syncytial virus subtype A …, UniProt P03420 26-574); test: cell-based or functional assay
[3] = biological target: T1, RSV F ectodomain stabilized in the postfusion conformation (F ΔFP), subtype B (Respiratory syncytial virus subtype B, UniProt P13843 26-109; P13843 147-524); test: BLI, IgG on AHQ sensor, 100 nM antigen
T1 construct: extracellular domain; trimer; also called Postfusion subtype B; postF subtype B

[4] = biological target: T2, RSV F ectodomain stabilized in the postfusion conformation (F ΔFP), subtype A (Respiratory syncytial virus subtype A, UniProt P03420 26-109; P03420 147-524); test: BLI, IgG on AHQ sensor, 100 nM antigen
T2 construct: extracellular domain; trimer; furin-cleaved; also called Postfusion subtype A

Row | Binder | Neut IC50 subtype B [1] | Neut IC50 subtype A [2] | Kd [3] | Kd [4]
1 | ADI-14498 (antibody, V domains shown, full-length IgG (yeast-expressed); also called Antibody Number 59; Ab# 59) VH: EVQLVESGPTLVKPTQTLTLTCTFSGFSLTTRGMGVGWIRQPPGRSLEWLAVIYWDGDVRYSPSLKGRLTITKDTPKNQVVLTMTNMDPVDTATYYCVHSDLYDRNAYYLHYFDFWGQGTLVTVSS VL: DIRLTQSPSSLSASVGDRVTITCRASQIIASYLNWYQQKPGKAPNLLIFAASSLQSGVPSRFRGSGSGTDFTLTISSLQPEDFATYYCQQSYSIPYTFGQGTKLEIK | > 10 µg/mL | > 10 µg/mL | 2.27 nM | 0.412 nM
2 | ADI-14497 (antibody, V domains shown, full-length IgG (yeast-expressed); also called Antibody Number 58; Ab# 58) VH: QITLKESGPTLVKPTQTLTLTCTFSGFSLTTRGVGVGWIRQPPGKALEFLGFIHWDDDKTYSPSLRRRLTITKDTSNNEVVLTMTNMDPVDTATYYCVHSDLYDSGGYYLYYFDYWGQGTLVTVSS VL: EIVMTQSPSSLSASVGDRVTITCRASQPIPSYVNWYQQRPGKAPKLLIYAASNLQSGVSSKFSGRGFGTDFTLTIDTLQPEDFATYYCQQVYTSPYTFGQGTKLEIK | 0.116 µg/mL | 0.115 µg/mL | 4.82 nM | 0.358 nM
3 | ADI-14500 (antibody, V domains shown, full-length IgG (yeast-expressed); also called Antibody Number 61; Ab# 61) VH: EVQLLESGGGLVKPGGSLRLSCAASGFIFNNAWMTWVRQAPGRGLEWVGRIKTNADGGTADYSTPVKGRFAISRDDSTNTLYLQMNSLKTEDTAVYYCTTGPPYKYSDSTGYSVVDYWGQGTLVTVSS VL: SYELTQPPSASGTPGQRVTISCSGSSSNIGSNYVYWYQQLPGTAPKLLIYSTNQRPSGVPDRFSGSQSGTSASLAISGLRSEDEADYYCAAWDDRLSGPVFGGGTQLTVL | 0.552 µg/mL | 0.415 µg/mL | 0.127 nM | 0.714 nM
4 | ADI-14504 (antibody, V domains shown, full-length IgG (yeast-expressed); also called Antibody Number 65; Ab# 65) VH: EVQLVESGGGLVQPGGSLRLSCAASGFPFSRYNMNWVRQAPGKGLEWVSYISSGSRSIYYADSVKGRFTISRDNAKNSLYLQMNSLRAEDTAVYYCARDLSGSPAYSGSWVWGQGTLVTVSS VL: not shown | 13.4 µg/mL | 2.81 µg/mL | 0.52 nM | 0.583 nM
5 | ADI-14471 (antibody, V domains shown, full-length IgG (yeast-expressed); also called Antibody Number 34; Ab# 34) VH: QVQLVQSGAEVKKPGSSVKVSCKASGGTFGSYAVIWVRQAPGQGLEWMGHIIPVFGTINNAQKFQGRLTLSADESTGTVYMGLSSLRSDDTAVYFCATKRYCSDPSCHGLWYFDLWGRGTLVTVSS VL: DIRLTQSPLSLPVTPGEPASISCRSSQSLLDSDDGNTYLDWYLQKPGQSPQVLIYMLSYRASGVPDRFSGSGSGTDFTLKISRVEAEDVGVYYCMQRAEFPYTFGQGTKLEIK | 0.116 µg/mL | 0.096 µg/mL | 0.15 nM | 0.212 nM
6 | ADI-14506 (antibody, V domains shown, full-length IgG (yeast-expressed); also called Antibody Number 67; Ab# 67) VH: QVQLVQSGAEVKKPGSSVKVSCKVAGGSFSNYAIAWLRQAPGQGLEWMGGIIPAFNRAMYARKFQDRVTITAYASTTTAYLDITGLRSEDTALYYCARPAGDFGDLKWVRSPFDYWGQGTLITVSS VL: DIVMTQTPGTLSVSPGERATLSCRASQDVGINLAWYQQKPGQAPRLLIYGASTRATDVPAKFSGSGSGTDFTLTISSLQSEDFGVYYCQEYNDWPPQLSFGPGTKVDIK | 6.25 µg/mL | > 10 µg/mL | 24.5 nM | 13.1 nM
7 | ADI-14499 (antibody, V domains shown, full-length IgG (yeast-expressed); also called Antibody Number 60; Ab# 60) VH: QVQLVQSGPALVKPTQTLTLTCTFSGFSLTTRGVGVGWIRQTPGKALECLGFIYWDDDMNYNPSLRGRVTITRDTSKNQVVLTMTNMAPVDTGTYYCVHSDLYDSSGYYLYYFDYWGQGTLVTVSS VL: DIRLTQSPSSLSASVGDRVTITCRASQPIASYLNWYQQKPGKAPKLLIYAASNLQSGVPSTFSGRGSGTDFSLTISTLQPEDIATYYCQQSYTSPYTFGQGTKVEIK | > 10 µg/mL | > 10 µg/mL | 2.99 nM | 0.415 nM
